According to the supplement of paper PMC7125110:
± gives the standard error. Fewer inactive variants are shown than the library holds.

B1: glmS ribozyme (parent)
chain: AUAAAAGCGCCAGAACUACAGAAAUGUAGUUGACGAGGAGGAGGUUUAUCGAAUUUUCGGCGGAUGCCUCCAAA

Experiments:
Conditions in all cases: with glucosamine-6-phosphate
glucosamine-6-phosphate [1] = variants of: B1; test: self-cleavage kobs at 40 uM GlcN6P; higher = faster cleavage; RNA array
In short: (§1)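 Tiles of sequenced MiSeq chips were imaged over ~14 h at 37 °C. On them, barcoded ribozyme variants had been transcribed in situ by E. coli RNA polymerase and were tracked via a hybridised Cy3 probe while glucosamine-6-phosphate (40 μM to 10 mM) in HEPES/KCl/Mg(OAc)2 buffer flowed in. Per-tile medians, normalised to baseline and to non-cleaving reference variants, were fit to one- or two-exponential decays for kobs, and weighted Michaelis–Menten fits gave kcat and KM.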

glucosamine-6-phosphate [2] = variants of: B1; test: self-cleavage kobs at 640 uM GlcN6P; higher = faster cleavage; RNA array
In short: as §1

glucosamine-6-phosphate [3] = variants of: B1; test: self-cleavage kobs at 160 uM GlcN6P; higher = faster cleavage; RNA array
In short: as §1

glucosamine-6-phosphate [4] = variants of: B1; test: self-cleavage kobs at 2500 uM GlcN6P; higher = faster cleavage; RNA array
In short: as §1

glucosamine-6-phosphate [5] = variants of: B1; test: self-cleavage kobs at 10000 uM GlcN6P; higher = faster cleavage; RNA array
In short: as §1

Variant	self-cleavage kobs at 40 uM GlcN6P (glucosamine-6-phosphate [1])	self-cleavage kobs at 640 uM GlcN6P (glucosamine-6-phosphate [2])	self-cleavage kobs at 160 uM GlcN6P (glucosamine-6-phosphate [3])	self-cleavage kobs at 2500 uM GlcN6P (glucosamine-6-phosphate [4])	self-cleavage kobs at 10000 uM GlcN6P (glucosamine-6-phosphate [5])
G13A A33G	< 1e-05 s⁻¹	< 1e-05 s⁻¹			
A15C U56G	6.11e-05 ± 1.3e-05 s⁻¹	0.000276 ± 8.7e-05 s⁻¹	7.19e-05 ± 1.9e-05 s⁻¹	0.0011 ± 0.00025 s⁻¹	0.00228 ± 0.00048 s⁻¹
A14U G35C	< 1e-05 s⁻¹	< 1e-05 s⁻¹	< 1e-05 s⁻¹	< 1e-05 s⁻¹	< 1e-05 s⁻¹
G13C A33U A39G U47C C61U	< 1e-05 s⁻¹				
G13A A39U C61U	< 1e-05 s⁻¹			< 1e-05 s⁻¹	
G13U G51U	< 1e-05 s⁻¹		< 1e-05 s⁻¹	< 1e-05 s⁻¹	< 1e-05 s⁻¹
A14G U55C C70U	6.64e-05 ± 2.1e-05 s⁻¹				0.00236 ± 0.00041 s⁻¹
G13C A36C U46G C68A	< 1e-05 s⁻¹				< 1e-05 s⁻¹
A15G A39C C61U G63C C68G	< 1e-05 s⁻¹	< 1e-05 s⁻¹			
A14G A15G A33G G40U	< 1e-05 s⁻¹	< 1e-05 s⁻¹			< 1e-05 s⁻¹
A15G C50U G60A A64C	< 1e-05 s⁻¹				
A14C A15G C70U	6.72e-05 ± 1.7e-05 s⁻¹	0.000547 ± 0.00017 s⁻¹	0.000124 ± 2.7e-05 s⁻¹	0.00207 ± 0.00058 s⁻¹	
G13A C16U G37U C67U	< 1e-05 s⁻¹				
A14G G37A G63U	< 1e-05 s⁻¹				< 1e-05 s⁻¹
G13A G32C G43U A48G U69A	< 1e-05 s⁻¹				
G13A U46C C67A	< 1e-05 s⁻¹	< 1e-05 s⁻¹			
G13A U31A A48C C50U G60U C67A	< 1e-05 s⁻¹				< 1e-05 s⁻¹
G13C U57G	< 1e-05 s⁻¹				
G13C G62A	< 1e-05 s⁻¹			< 1e-05 s⁻¹	
A14G G40U C58G G60A	< 1e-05 s⁻¹			< 1e-05 s⁻¹	
A14U G37U C70A	< 1e-05 s⁻¹				
A14U A15C A33C C70G	< 1e-05 s⁻¹				
A14U G35C A42C	< 1e-05 s⁻¹		< 1e-05 s⁻¹		
G13A U45C A64G	< 1e-05 s⁻¹				
A14G A53C C71U	0.000387 ± 8.7e-05 s⁻¹	0.00168 ± 0.00056 s⁻¹		0.00736 ± 0.003 s⁻¹	0.00798 ± 0.002 s⁻¹
G13U G29U A52G C67G	6.42e-05 ± 1.9e-05 s⁻¹				8.86e-05 ± 1.8e-05 s⁻¹
G13C C16A G37U	< 1e-05 s⁻¹				< 1e-05 s⁻¹
A14C A36G C71U	< 1e-05 s⁻¹				
A15G C50G C68U	0.000179 ± 3.4e-05 s⁻¹	0.000492 ± 0.00016 s⁻¹		0.000371 ± 0.00011 s⁻¹	0.000154 ± 3.1e-05 s⁻¹
